Residues, ends and D or L forms follow the SMILES beside them. *: point of attachment. Cbz = O=C(OCc1ccccc1)*; CH2F = FC*
What was measured:
caspase-1 = test: IL-1β secretion assay in COS-7L cells (ELISA for mouse IL-1β); type: cell-based; details: for IL-1β production (caspase-1 activation): co-expression with caspase-1 and CARD-5 at low protein levels, FIG. 14B
Procedure: Experiments were next carried out using an IL-1β secretion assay to determine whether CARD-5 and PYRIN-8 induce activation of caspase-1. Active caspase-1 cleaves pro-IL-1β, resulting in the secretion of bioactive IL-1β from cells. In the IL-1β secretion assays, COS-7L cells (GIBCO) were co-transfected in 12-well (22-mm) plates using LipofectAMINE […] reagent (Invitrogen) with plasmids encoding mouse pro-IL-1β and indicated expression plasmids (total DNA=1.04 μg). Supernatants were collected 24 hours after transfection and subjected to ELISA for mouse IL-1β according to the manufacturer's protocol (R&D Systems).
The caspase-1 inhibitor Z-WEHD-FMK was added to cells following transfection at a final concentration of 100 μM.

CARD-5 = molecular target: T1, CARD-5 (Homo sapiens, UniProt Q9ULZ3); test: Cellular co-localization (immunostaining) in 293T embryonic kidney cells; type: cell-based; details: 293T cells; FLAG-tagged PYRIN-8 construct co-expressed with HA-tagged CARD-5
T1 construct: expressed in transfected cells; host or cells: 293T
Procedure: Cellular co-localization studies were carried out to determine whether PYRIN-8 interacts with CARD-5 (also known as ASC) when the two proteins were overexpressed in 293T embryonic kidney cells. Plasmids expressing either full-length PYRIN-8 (PYRIN-8FL, residues 1-1061 of SEQ ID NO:18) or a PYRIN-8 truncation mutant lacking the PYRIN domain (PYRIN-8ΔPYRIN, residues 89-1061 of SEQ ID NO:18) with a C-terminal FLAG epitope were constructed using pCI (Promega). FLAG-tagged PYRIN-8 and HA-tagged CARD-5 were expressed in cells and detected using a mixture of anti-HA and anti-FLAG antibodies.
In immunostaining assays to detect cellular localization, 293T cells were transfected in poly-D-lysine-coated glass chamber slides (BioCoat, Becton-Dickinson Labware) with plasmids expressing HA-tagged CARD-5 and either FLAG-tagged PYRIN-8 or PYRIN-8ΔPYRIN using SuperFect transfection reagent (Qiagen). Cells were fixed 24 hours after transfection in 4% paraformaldehyde, permeabilized and blocked in a buffer containing 0.3% Triton X-100, and incubated with the following primary and secondary antibodies: rabbit anti-HA polyclonal Y-11 (Santa Cruz Biotechnology), mouse anti-FLAG monoclonal antibody M2 (Sigma), Alexa-350 goat anti-rabbit IgG (Molecular Probes), and Alexa-598 goat anti-mouse IgG (Molecular Probes). […]

T1 sequence (Q9ULZ3 whole entry): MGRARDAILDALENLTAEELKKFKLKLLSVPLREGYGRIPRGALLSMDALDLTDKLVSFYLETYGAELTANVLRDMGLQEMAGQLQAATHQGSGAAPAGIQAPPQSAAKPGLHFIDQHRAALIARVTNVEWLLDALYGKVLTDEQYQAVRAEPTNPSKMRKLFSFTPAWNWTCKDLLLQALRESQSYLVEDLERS

Row | Molecule | effect on IL-1β secretion induced by PYRIN-8 and CARD-5 (caspase-1; inhibitor added following transfection at a final concentration of 100 μM, FIG. 14C) | co-localization with CARD-5 punctate structures (CARD-5) | IL-1β production (caspase-1 activation) (caspase-1)
1 | COC(=O)CC[C@H](NC(=O)[C@H](Cc1c[nH]c2ccccc12)NC(=O)OCc1ccccc1)C(=O)N[C@@H](Cc1cnc[nH]1)C(=O)N[C@@H](CC(=O)OC)C(=O)CF [Z-WEHD, Z-WEHD-FMK, reference compound] (Cbz-WE(OMe)HD(OMe)-CH2F) | blocked the ability of PYRIN-8 and CARD-5 to induce the secretion of IL-1β |  | 
2 | PYRIN-8ΔPYRIN: PYRIN-8 truncation mutant lacking the PYRIN domain, residues 89-1061 of SEQ ID NO:18 (protein, listed as Homo sapiens) GQREDLVRDTPPGGPSSLGNQSTCLLEVSLVTPRKDPQETYRDYVRRKFRLMEDRNARLGECVNLSHRYTRLLLVKEHSNPMQVQQQLLDTGRGHARTVGHQASPIKIETLFEPDEERPEPPRTVVMQGAAGIGKSMLAHKVMLDWADGKLFQGRFDYLFYINCREMNQSATECSMQDLIFSCWPEPSAPLQELIRVPERLLFIIDGFDELKPSFHDPQGPWCLCWEEKRPTELLLNSLIRKKLLPELSLLITTRPTALEKLHRLLEHPRHVEILGFSEAERKEYFYKYFHNAEQAGQVFNYVRDNEPLFTMCFVPLVCWVVCTCLQQQLEGGGLLRQTSRTTTAVYMLYLLSLMQPKPGAPRLQPPPNQRGLCSLAADGLWNQKILFEEQDLRKHGLDGEDVSAFLNMNIFQKDINCERYYSFIHLSFQEFFAAMYYILDEGEGGAGPDQDVTRLLTEYAFSERSFLALTSRFLFGLLNEETRSHLEKSLCWKVSPHIKMDLLQWIQSKAQSDGSTLQQGSLEFFSCLYEIQEEEFIQQALSHFQVIVVSNIASKMEHMVSSFCLKRCRSAQVLHLYGATYSADGEDRARCSAGAHTLLVQLPERTVLLDAYSEHLAAALCTNPNLIELSLYRNALGSRGVKLLCQGLRHPNCKLQNLRLKRCRISSSACEDLSAALIANKNLTRMDLSGNGVGFPGMMLLCEGLRHPQCRLQMIQLRKCQLESGACQEMASVLGTNPHLVELDLTGNALEDLGLRLLCQGLRHPVCRLRTLWLKICRLTAAACDELASTLSVNQSLRELDLSLNELGDLGVLLLCEGLRHPTCKLQTLRLGICRLGSAACEGLSVVLQANHNLRELDLSFNDLGDWGLWLLAEGLQHPACRLQKLWLDSCGLTAKACENLYFTLGINQTLTDLYLTNNALGDTGVRLLCKRLSHPGCKLRVLWLFGMDLNKMTHSRLAALRVTKPYLDIGC |  | failed to associate with the CARD-5 punctate structures | eliminated the synergistic production of IL-1β
3 | PYRIN-8: full-length human PYRIN-8 protein, residues 1-1061 of SEQ ID NO:18, expressed from plasmid (protein, listed as Homo sapiens) MLRTAGRDGLCRLSTYLEELEAVELKKFKLYLGTATELGEGKIPWGSMEKAGPLEMAQLLITHFGPEEAWRLALSTFERINRKDLWERGQREDLVRDTPPGGPSSLGNQSTCLLEVSLVTPRKDPQETYRDYVRRKFRLMEDRNARLGECVNLSHRYTRLLLVKEHSNPMQVQQQLLDTGRGHARTVGHQASPIKIETLFEPDEERPEPPRTVVMQGAAGIGKSMLAHKVMLDWADGKLFQGRFDYLFYINCREMNQSATECSMQDLIFSCWPEPSAPLQELIRVPERLLFIIDGFDELKPSFHDPQGPWCLCWEEKRPTELLLNSLIRKKLLPELSLLITTRPTALEKLHRLLEHPRHVEILGFSEAERKEYFYKYFHNAEQAGQVFNYVRDNEPLFTMCFVPLVCWVVCTCLQQQLEGGGLLRQTSRTTTAVYMLYLLSLMQPKPGAPRLQPPPNQRGLCSLAADGLWNQKILFEEQDLRKHGLDGEDVSAFLNMNIFQKDINCERYYSFIHLSFQEFFAAMYYILDEGEGGAGPDQDVTRLLTEYAFSERSFLALTSRFLFGLLNEETRSHLEKSLCWKVSPHIKMDLLQWIQSKAQSDGSTLQQGSLEFFSCLYEIQEEEFIQQALSHFQVIVVSNIASKMEHMVSSFCLKRCRSAQVLHLYGATYSADGEDRARCSAGAHTLLVQLPERTVLLDAYSEHLAAALCTNPNLIELSLYRNALGSRGVKLLCQGLRHPNCKLQNLRLKRCRISSSACEDLSAALIANKNLTRMDLSGNGVGFPGMMLLCEGLRHPQCRLQMIQLRKCQLESGACQEMASVLGTNPHLVELDLTGNALEDLGLRLLCQGLRHPVCRLRTLWLKICRLTAAACDELASTLSVNQSLRELDLSLNELGDLGVLLLCEGLRHPTCKLQTLRLGICRLGSAACEGLSVVLQANHNLRELDLSFNDLGDWGLWLLAEGLQHPACRLQKLWLDSCGLTAKACENLYFTLGINQTLTDLYLTNNALGDTGVRLLCKRLSHPGCKLRVLWLFGMDLNKMTHSRLAALRVTKPYLDIGC |  | co-localize with CARD-5 | increase in IL-1β production
